Assay results published in patent US20110059469A1 (UNIVERSITY OF TOKYO, published 2011).

T1: human CLDN9 (human, UniProt O95484 1-217)
T1 construct: also called hCLDN9
T1 sequence: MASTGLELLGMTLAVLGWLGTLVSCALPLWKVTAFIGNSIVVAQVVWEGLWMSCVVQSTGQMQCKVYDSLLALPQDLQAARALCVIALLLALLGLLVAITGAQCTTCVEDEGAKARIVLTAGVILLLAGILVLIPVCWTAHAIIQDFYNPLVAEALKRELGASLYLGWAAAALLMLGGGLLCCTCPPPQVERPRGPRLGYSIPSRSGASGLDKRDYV

T2: human CLDN4 (human, UniProt O14493 1-209)
T2 construct: also called hCLDN4
T2 sequence: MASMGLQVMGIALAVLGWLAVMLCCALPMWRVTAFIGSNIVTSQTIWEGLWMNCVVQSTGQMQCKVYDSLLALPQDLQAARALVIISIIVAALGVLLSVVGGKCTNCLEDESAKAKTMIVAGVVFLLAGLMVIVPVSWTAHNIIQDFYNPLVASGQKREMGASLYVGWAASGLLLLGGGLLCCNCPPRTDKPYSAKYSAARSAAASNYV


Columns and labels:
[1] = biological target: T1, human CLDN9; assay: flow cytometry on Ba/F3 cells forced to express human CLDN9
[2] = biological target: T2, human CLDN4; assay: flow cytometry on Ba/F3 cells forced to express human CLDN4

Row | binding result [1] | binding result [2] | Binder
1 | binds | – | AB3-1 (antibody, V domains shown, also called anti-human CLDN6 monoclonal antibody AB3-1) VH: EVQLQQSGPELVKPGGSMKISCKASGYSFTGYTMNWVKQSHGKNLEWIGLINPYNGGISYNQKFKDKATLTMDKSSSTAYMELLSLTSEDSAIYFCARDYRYEGFDYWGQGTLVTVSA VL: QIVLTQSPAIMSASLGERVTMTCTASSVVISTYLHWYQQKPGSSPKLWIYSTSNLASGVPVRFSGSGSGTSYSLTISSMEAEDAATYYCHQYHRSPWTFGGGTKLEIK
2 | binds | binds | AE1-16 (antibody, V domains shown, also called anti-human CLDN6 monoclonal antibody AE1-16) VH: EVQLQQSGPELVKPGASVKISCKASGYSFTGYFMNWVKQSHGKSLEWIGRINPYNGDTFYNQKFKGKATLTVDKSSNTAHMELRSLTSEDSAVYYCARVLFLDFDDPYLMDYWGQGTSVTVSS VL: ENVLTQSPAIMSATLGEKVTMSCRATSNVKYMYWYQQKSGASPKLWIYYTSNLASGVPARFSGSGSGTSYSLTISSVEAADAATYYCQQFTSSPSTFGAGTKLELK
3 | binds | binds | AE49-11 (antibody, IgG2b, V domains shown, also called AE49-11 antibody; original IgG2b antibody) VH: EVQLQQSGPELVKPGASVKISCKASGYSFTGYFMNWVKQSHGKSLEWIGRINPYNGDTFYNQKFKGKATLTVDKSSSTAHMELRSLTSEDSAVYYCARVLFLDFDDPYLMDYWGQGTSVTVSS VL: ENVLTQSPAIMSATLGEKVTMSCRATSNVKYMYWYQQKSGASPKLWIYYTSNLASGVPARFSGSGSGTSYSLTISSVEAADAATYYCQQFTSSPSTFGAGTKLELK
